{"source": "patent US20080234198A1", "about": "(Eli Lilly, published 2008)", "biological_target": "T1, human VPAC2 receptor (human), P41587", "T1 chain": "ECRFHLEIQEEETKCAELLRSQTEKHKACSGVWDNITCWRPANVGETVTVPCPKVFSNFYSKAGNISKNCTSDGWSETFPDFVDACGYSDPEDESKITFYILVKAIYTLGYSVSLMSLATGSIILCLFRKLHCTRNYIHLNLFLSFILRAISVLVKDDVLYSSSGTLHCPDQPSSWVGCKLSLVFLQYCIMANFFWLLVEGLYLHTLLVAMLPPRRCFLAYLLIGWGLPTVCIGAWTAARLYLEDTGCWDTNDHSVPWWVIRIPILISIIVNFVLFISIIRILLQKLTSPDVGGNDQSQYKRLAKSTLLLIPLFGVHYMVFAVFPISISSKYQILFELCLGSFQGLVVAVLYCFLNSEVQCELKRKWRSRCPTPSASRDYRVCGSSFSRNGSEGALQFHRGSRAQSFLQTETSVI", "test": "filter binding, VPAC2 cell membranes, displacement of 125I-VIP", "conditions": "remark: other sources report otherwise"}
{"binder": "HSDAVFTEQYTXLRXQXAAXXYLQSIXXGGPSSGAPPPS (here or on the partner: C6-HSDAVFTEQY(OMe)TOrnLRAibQK(WPEG40K)AAAibOrnYLQSIOrnOrnGGPSSGAPPPS-NH2)", "note": "[P533]", "values": [{"measurement": "IC50", "value": 959, "unit": "nM"}]}
